Experimental data as given in patent US20250340608A1 (PROTAGONIST THERAPEUTICS, published 2025).
One block for each binder: values may come before it. Numbered stars: 1 amine (or outer) side, 2 acyl side, 3 side chain; on linkers, the order of the positions; unused ones are H or OH. Square brackets hold non-standard residues; d marks the D form. Primed or numbered codes have the meaning given here. Ends that are not written are not given here. * marks the point of attachment. Ida = iminodiacetic acid, O=C(CN(CC(=O)[*:3])[*:1])[*:2]; PEG8′ = PEG8 conjugated to the Lys side chain; Palmitoyl = CCCCCCCCCCCCCCCC(=O)*; β3hP = O=C(O)C[C@@H]1CCCN1; Isovaleryl = CC(C)CC(=O)*; PEG11′ = not defined here; Isobutyryl = CC(C)C(=O)*; Octanoyl = CCCCCCCC(=O)*

Target: T1, human ferroportin (SLC40A1) fused in frame with GFP, stably expressed in HEK293 cells (human, UniProt Q9NP59 1-571)
T1 sequence (looked up): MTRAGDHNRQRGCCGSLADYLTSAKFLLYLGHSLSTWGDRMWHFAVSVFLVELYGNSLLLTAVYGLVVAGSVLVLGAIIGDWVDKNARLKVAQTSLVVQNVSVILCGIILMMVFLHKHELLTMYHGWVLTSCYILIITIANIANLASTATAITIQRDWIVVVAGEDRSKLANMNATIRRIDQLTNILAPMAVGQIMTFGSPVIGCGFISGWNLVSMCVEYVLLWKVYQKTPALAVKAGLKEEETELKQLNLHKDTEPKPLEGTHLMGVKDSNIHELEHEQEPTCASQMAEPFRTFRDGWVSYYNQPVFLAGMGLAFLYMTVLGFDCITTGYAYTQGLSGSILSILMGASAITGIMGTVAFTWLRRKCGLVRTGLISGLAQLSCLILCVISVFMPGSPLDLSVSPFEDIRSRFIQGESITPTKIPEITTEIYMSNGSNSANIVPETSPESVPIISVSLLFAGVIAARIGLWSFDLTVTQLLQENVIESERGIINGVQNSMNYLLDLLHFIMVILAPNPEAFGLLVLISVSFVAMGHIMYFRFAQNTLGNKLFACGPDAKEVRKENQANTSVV
Assay: cell-based or functional assay

- Potency EC50 (nM): > 1000 nM
B1: Compound 103 (peptide)
peptide: H-EDTHFPCIIFGPRSKGWVCK-NH2
modifications: not fully specified (bridges); printed as Hy-EDTHFPCIIFGPRSKGWVCK-NH2; cysteine pairing not given here

- Potency EC50: 9 nM
Binder: Isovaleryl-DTHFPCIIFEPRSKGWVCK-NH2 (cysteine pairing not given here) [Compound 142]

- Potency EC50: 9 nM
Binder: Isovaleryl-DTHFPCIIFGPRSKGWVCKK-NH2 (cysteine pairing not given here) [Compound 145]

- Potency EC50 (nM): > 1000 nM
Binder: H-DTHFPCIRFGPRSRGWRCK-NH2 (cysteine pairing not given here) [Compound 82]

- Potency EC50 (nM): > 1000 nM
Binder: H-DTHFPCIIFGPRSRGWRCK-NH2 (cysteine pairing not given here) [Compound 80]

- Potency EC50: 50 nM
Binder: Isovaleryl-DTHFSCIIFGPRSKGWVCK-NH2 (not fully specified (bridges); cysteine pairing not given here) [Compound 107]

- Potency EC50 (nM): > 1000 nM
Binder: {Isobutyryl-PEG11′}-DTHFPCIIFGPRSRGWVCK-NH2 (not fully specified (bridges); cysteine pairing not given here) [Compound 109]

- Potency EC50: 15 nM
Binder: Isovaleryl-DTHFPCIIFGPRSKGWCK-NH2 (not fully specified (bridges); cysteine pairing not given here) [Compound 113]

- Potency EC50: > 300 nM
B2: Compound 110 (peptide)
peptide: [Ida]THFPCIIFGPRSRGWVCK-NH2
modifications: not fully specified (bridges); printed as [Ida]-THFPCIIFGPRSRGWVCK-NH2; cysteine pairing not given here

- Potency EC50 (nM): > 1000 nM
B3: Compound 102 (peptide)
peptide: H-DTHFPCIKFGPRSKGWVCK-NH2
modifications: not fully specified (bridges); printed as Hy-DTHFPCIKFGPRSKGWVCK-NH2; cysteine pairing not given here

- Potency EC50: 545 nM
Binder: H-DTHFPCISFGPRSKGWVCM-NH2 (cysteine pairing not given here) [Compound 135]

- Potency EC50 (nM): > 1000 nM
Binder: H-DTHFPCIIFGPRSRGWVCK-NH2 (cysteine pairing not given here) [Compound 83]

- Potency EC50: 9 nM
Binder: Isovaleryl-DTHFPCIK(PEG8′)FGPRSKGWVCK-NH2 (cysteine pairing not given here) [Compound 149]

- Potency EC50: 873 nM
Binder: H-EDTHFPCIIFGPRSKGWVCM-NH2 (cysteine pairing not given here) [Compound 137]

- Potency EC50: 18 nM
Binder: Isovaleryl-DTHFPCIKFGPRSKGWVCK(PEG8′)-NH2 (cysteine pairing not given here) [Compound 153]

- Potency EC50: 10 nM
Binder: Isovaleryl-DTHFPCIIFEPRSKGWVCK-NH2 (not fully specified (bridges); cysteine pairing not given here) [Compound 105]

- Potency EC50 (nM): > 1000 nM
B4: Compound 87 (peptide)
peptide: H-DTHFPCIIFGPRARGWVCK-NH2
modifications: not fully specified (bridges); printed as Hy-DTHFPCIIFGPRARGWVCK-NH2; cysteine pairing not given here

- Potency EC50 (nM): > 1000 nM
Binder: Isovaleryl-HFPCIIFGPRSKGWVCM-NH2 (cysteine pairing not given here) [Compound 134]

- Potency EC50: 18 nM
Binder: Isovaleryl-DTHFPCIIFGPRSKGVC-NH2 (not fully specified (bridges); cysteine pairing not given here) [Compound 114]

- Potency EC50 (nM): > 1000 nM
Binder: Isovaleryl-DTHFKCIEFGPRSKGWVCK-NH2 (cysteine pairing not given here) [Compound 140]

- Potency EC50: 669 nM
Binder: H-DTHFPCIKFGPRSKGWVCM-NH2 (cysteine pairing not given here) [Compound 136]

- Potency EC50 (nM): > 1000 nM
Binder: Octanoyl-DTHFPCIIFGPRSRGWVCK-NH2 (not fully specified (bridges); cysteine pairing not given here) [Compound 88]

- Potency EC50: 20 nM
Binder: Isovaleryl-DTKFPCIIFGPRSKGWVCK-NH2 (cysteine pairing not given here) [Compound 147]

- Potency EC50 (nM): > 1000 nM
Binder: H-HFPCIIFGPRSKGWVCM-NH2 (cysteine pairing not given here) [Compound 133]

- Potency EC50 (nM): > 1000 nM
Binder: H-THFPCIIFGPRSKGWVCM-NH2 (cysteine pairing not given here) [Compound 132]

- Potency EC50: 15 nM
Binder: Isovaleryl-DTHFPCIKFGPKSKGWVCK-NH2 (not fully specified (bridges); cysteine pairing not given here) [Compound 112]

- Potency EC50: 705 nM
B5: Compound 85 (peptide)
peptide: H-DTHFPCIYFGPRSKGWVCK-NH2
modifications: not fully specified (bridges); printed as Hy-DTHFPCIYFGPRSKGWVCK-NH2; cysteine pairing not given here

- Potency EC50 (nM): > 1000 nM
B6: Compound 84 (peptide)
peptide: H-DTHFPCIIFGPRSRGVCK-NH2
modifications: not fully specified (bridges); printed as Hy-DTHFPCIIFGPRSRGVCK-NH2; cysteine pairing not given here

- Potency EC50 (nM): > 1000 nM
Binder: {Octanoic acid-PEG11′}-DTHFPCIIFGPRSRGWVCK-NH2 (not fully specified (bridges); cysteine pairing not given here) [Compound 108]

- Potency EC50 (nM): > 1000 nM
B7: Compound 89 (peptide)
peptide: {Palmitoyl-PEG11′}-DTHFPCIIFGPRSRGWVCK-NH2
modifications: not fully specified (bridges); printed as Palm-PEG11-DTHFPCIIFGPRSRGWVCK-NH2; cysteine pairing not given here

- Potency EC50: 15 nM
Binder: Isovaleryl-DTHFPCIIFEPRSKGWVCKKKK-NH2 (cysteine pairing not given here) [Compound 144]

- Potency EC50: 7 nM
Binder: DTHFPCIKFKPRSKGWVCK (N-terminal isovaleric acid; PEG8 on side chain of Lys 10; C-terminal amide) [Compound 150]

- Potency EC50 (nM): > 1000 nM
B8: Compound 101 (peptide)
peptide: H-DTHFPCISFGPRSKGWVCK-NH2
modifications: not fully specified (bridges); printed as Hy-DTHFPCISFGPRSKGWVCK-NH2; cysteine pairing not given here

- Potency EC50 (nM): > 1000 nM
Binder: H-DTHFPCIRFGPRSRGWVCK-NH2 (cysteine pairing not given here) [Compound 81]

- Potency EC50: 18 nM
Binder: Isovaleryl-DTHFPCIKFGPRSKGWTCK-NH2 (cysteine pairing not given here) [Compound 154]

- Potency EC50 (nM): > 1000 nM
B9: Compound 79 (peptide)
peptide: H-DTHF[β3hP]CIIFGPRSRGWVCK-NH2
modifications: not fully specified (bridges); printed as Hy-DTHF[bh-Pro]-CIIFGPRSRGWVCK-NH2; cysteine pairing not given here

- Potency EC50 (nM): > 1000 nM
B10: Compound 86 (peptide)
peptide: H-DTHFPCIIFGPRSKGWVCK-NH2
modifications: not fully specified (bridges); printed as Hy-DTHFPCIIFGPRSKGWVCK-NH2; cysteine pairing not given here
